Laboratory results published in PMC2954053.

Tests used:
TRAP150 = TRAP150 (UniProt Q9Y2W1); assay: anti-Flag co-IP, TRAP150 blot; details: reference: wild type Flag-PSF; sites T687
BTF = BTF (UniProt Q9NYF8); assay: anti-Flag co-IP, BTF blot; details: reference: wild type Flag-PSF; sites T687

PSF (from UniProt P23246) T687A
binding against the reference (TRAP150): weaker | binding against the reference (BTF): weaker
